Test results: patent US12559863B2, “Macrocyclic modulators of disease associated protein misfolding and aggregation” (RESQ BIOTECH, priority 2017, dated 2026)

Molecular target: T1, Aβ42-GFP (Homo sapiens, UniProt P05067)
T1 construct: a chimeric fusion of the human Aβ(1-42) peptide (Aβ42) with GFP; expressed in transfected cells; host or cells: E. coli BL21(DE3)
Assay: High-throughput sequencing of pSICLOPPS vectors isolated after bacterial sorting for enhanced Aβ42-GFP fluorescence
Settings: for Reads/Total TXXXR reads (%): relative to total TXXXR reads; for Reads/Total pentapeptide reads (%): relative to total pentapeptide reads; for Normalized read number (%): Table 3, cyclo-TXXR tetrapeptides
Method in brief: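 Peptide inserts recovered from repeatedly sorted high-GFP clones were sequenced on Ion Torrent, excluding stop-codon-containing reads. Sorting used BL21(DE3) cells carrying pETAβ42-GFP plus the tetra-, penta- and hexapeptide pSICLOPPS library. Peptide production was induced with 0.002% L-arabinose and the reporter with 0.1 mM IPTG at OD600 ~0.5, at 37° C.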

[1] = after the second round of bacterial sorting for enhanced Aβ42-GFP fluorescence
[2] = after the second round of bacterial sorting for enhanced Aβ42-GFP fluorescence, relative to total peptide reads
[3] = pSICLOPPS-NuX1X2X3-X5 vectors after the second round of bacterial sorting for enhanced Aβ42-GFP fluorescence
[4] = after the second round of bacterial sorting
[5] = after the second round of bacterial sorting, relative to total peptide reads
[6] = high-throughput sequencing of isolated pSICLOPPS-NuX1X2X3-X5 vectors after the second round of bacterial sorting for enhanced Aβ42-GFP fluorescence, selected cyclo-TXXXR pentapeptides
[7] = Table 4, hexapeptides, after second round of sorting

Row | Substance | Reads/Total TXXXR reads (%) [4] | Reads/Total pentapeptide reads (%) [4] | Reads/Total peptide reads (%) [5] | Number of reads [6] | also measured
1 | AβC5-385 (TTLYR; head-to-tail cyclic) | – | – | – | – | Reads/Total TXXXR reads (%) [1]: 0.005%; Reads/Total pentapeptide reads (%) [1]: 0.002%; Reads/Total peptide reads (%) [2]: 0.002%; Number of reads [3]: 90
2 | AβC5-218 (TVLHR; cyclic) | 0.026% | 0.012% | 0.011% | 497 | –
3 | AβC5-121 (TIKDR; cyclic) | 0.209% | 0.098% | 0.088% | 3,970 | –
4 | AβC5-428 (TTCGR; cyclic pentapeptide) | – | – | – | – | Reads/Total TXXXR reads (%) [1]: 0.004%; Reads/Total pentapeptide reads (%) [1]: 0.002%; Reads/Total peptide reads (%) [2]: 0.002%; Number of reads [3]: 69
5 | AβC5-479 (TTTVR; cyclic pentapeptide) | – | – | – | – | Reads/Total TXXXR reads (%) [1]: 0.003%; Reads/Total pentapeptide reads (%) [1]: 0.001%; Reads/Total peptide reads (%) [2]: 0.001%; Number of reads [3]: 50
6 | AβC5-15 (TANVR; cyclic) | 2.516% | 1.179% | 1.056% | 47,855 | –
7 | AβC5-3 (TTVDR; cyclic) | 11.276% | 5.282% | 4.734% | 214,461 | –
8 | AβC5-30 (TSTAR; cyclic) | 1.444% | 0.676% | 0.606% | 27,456 | –
9 | AβC5-266 (TTLRR; cyclic) | 0.014% | 0.007% | 0.006% | 274 | –
10 | AβC5-483 (TRVGR; cyclic pentapeptide) | – | – | – | – | Reads/Total TXXXR reads (%) [1]: 0.003%; Reads/Total pentapeptide reads (%) [1]: 0.001%; Reads/Total peptide reads (%) [2]: 0.001%; Number of reads [3]: 50
11 | cyclo-TLIR (cyclic) [AβC4B-41] | – | – | – | – | Normalized read number (%): 0.775%
12 | cyclo-TTRR (cyclic) [AβC4-11] | – | – | – | – | Normalized read number (%): 1.2%
13 | AβC5-275 (TAHVR; cyclic) | 0.013% | 0.006% | 0.005% | 249 | –
14 | AβC5-130 (TAYHR; cyclic) | 0.136% | 0.064% | 0.057% | 2,594 | –
15 | AβC5-252 (TVIWR; cyclic) | 0.017% | 0.008% | 0.007% | 331 | –
16 | AβC5-253 (TTWFR; cyclic) | 0.017% | 0.008% | 0.007% | 327 | –
17 | cyclo-TDQR (cyclic) [AβC4B-9] | – | – | – | – | Normalized read number (%): 2.09%
18 | AβC5-44 (TAWAR; cyclic pentapeptide) | 1.094% | 0.512% | 0.459% | 20,807 | –
19 | TVTWFD [AβC6-6] | – | – | – | – | Reads/Total hexapeptide reads (%) (Table 4): 3.778%; Reads/Total peptide reads (%) (Table 4): 0.377%; Number of reads [7]: 17,100
20 | AβC5-173 (TTHAR; cyclic) | 0.050% | 0.023% | 0.021% | 953 | –
21 | AβC5-359 (TAMWR; head-to-tail cyclic) | 0.006% | 0.003% | 0.002% | 110 | –
22 | AβC5-316 (TTCAR; head-to-tail cyclic) | 0.008% | 0.004% | 0.003% | 157 | –
23 | AβC5-291 (TTLDR; cyclic) | 0.011% | 0.005% | 0.005% | 213 | –
24 | TSVEYE [AβC6-41] | – | – | – | – | Reads/Total hexapeptide reads (%) (Table 4): 0.068%; Reads/Total peptide reads (%) (Table 4): 0.007%; Number of reads [7]: 307
25 | AβC5-188 (TGMRR; cyclic) | 0.040% | 0.019% | 0.017% | 768 | –
26 | cyclo-TTGR [AβC4-35] | – | – | – | – | Normalized read number (%): 0.295%

Row | Substance | Reads/Total TXXXR reads (%) [4] | Reads/Total pentapeptide reads (%) [4] | Reads/Total peptide reads (%) [5] | Number of reads [6] | also measured
27 | AβC5-344 (TTPGR; head-to-tail cyclic) | 0.007% | 0.003% | 0.003% | 125 | –
28 | AβC5-333 (THVRR; head-to-tail cyclic) | 0.007% | 0.003% | 0.003% | 137 | –
29 | AβC5-389 (THLDR; head-to-tail cyclic) | – | – | – | – | Reads/Total TXXXR reads (%) [1]: 0.005%; Reads/Total pentapeptide reads (%) [1]: 0.002%; Reads/Total peptide reads (%) [2]: 0.002%; Number of reads [3]: 89
30 | TPCWFD [AβC6-46] | – | – | – | – | Reads/Total hexapeptide reads (%) (Table 4): 0.056%; Reads/Total peptide reads (%) (Table 4): 0.006%; Number of reads [7]: 252
31 | AβC5-17 (TTTAR; cyclic) | 2.110% | 0.989% | 0.886% | 40,135 | –
32 | AβC5-405 (TTSHR; head-to-tail cyclic) | – | – | – | – | Reads/Total TXXXR reads (%) [1]: 0.004%; Reads/Total pentapeptide reads (%) [1]: 0.002%; Reads/Total peptide reads (%) [2]: 0.002%; Number of reads [3]: 78
33 | AβC5-184 (TVLAR; cyclic) | 0.043% | 0.020% | 0.018% | 818 | –
34 | AβC5-26 (TAWCR; cyclic) | 1.493% | 0.699% | 0.627% | 28,391 | –
35 | AβC5-375 (TNLAR; head-to-tail cyclic) | 0.005% | 0.002% | 0.002% | 97 | –
36 | AβC5-464 (TTPAR; cyclic pentapeptide) | – | – | – | – | Reads/Total TXXXR reads (%) [1]: 0.003%; Reads/Total pentapeptide reads (%) [1]: 0.001%; Reads/Total peptide reads (%) [2]: 0.001%; Number of reads [3]: 54
37 | AβC5-13 (TALDR; cyclic) | 3.301% | 1.547% | 1.386% | 62,792 | –
38 | AβC5-481 (TVFGR; cyclic pentapeptide) | – | – | – | – | Reads/Total TXXXR reads (%) [1]: 0.003%; Reads/Total pentapeptide reads (%) [1]: 0.001%; Reads/Total peptide reads (%) [2]: 0.001%; Number of reads [3]: 50
39 | AβC5-474 (TTWPR; cyclic pentapeptide) | – | – | – | – | Reads/Total TXXXR reads (%) [1]: 0.003%; Reads/Total pentapeptide reads (%) [1]: 0.001%; Reads/Total peptide reads (%) [2]: 0.001%; Number of reads [3]: 51
40 | AβC5-18 (TTIAR; cyclic) | 1.953% | 0.915% | 0.820% | 37,150 | –
41 | AβC5-472 (TMYAR; cyclic pentapeptide) | – | – | – | – | Reads/Total TXXXR reads (%) [1]: 0.003%; Reads/Total pentapeptide reads (%) [1]: 0.001%; Reads/Total peptide reads (%) [2]: 0.001%; Number of reads [3]: 51
42 | AβC5-89 (TATDR; cyclic) | 0.420% | 0.197% | 0.176% | 7,984 | –
43 | cyclo-TRGR [AβC4-34] | – | – | – | – | Normalized read number (%): 0.3047%
44 | AβC5-73 (TTRDR; cyclic pentapeptide) | 0.678% | 0.318% | 0.285% | 12,894 | –
45 | AβC5-376 (TIRDR; head-to-tail cyclic) | 0.005% | 0.002% | 0.002% | 96 | –
46 | AβC5-459 (TTAAR; cyclic pentapeptide) | – | – | – | – | Reads/Total TXXXR reads (%) [1]: 0.003%; Reads/Total pentapeptide reads (%) [1]: 0.001%; Reads/Total peptide reads (%) [2]: 0.001%; Number of reads [3]: 55
47 | AβC5-123 (TTVHR; cyclic) | 0.177% | 0.083% | 0.074% | 3,371 | –
48 | AβC5-325 (TVWIR; head-to-tail cyclic) | 0.008% | 0.004% | 0.003% | 144 | –
49 | AβC5-255 (TTSRR; cyclic) | 0.017% | 0.008% | 0.007% | 325 | –
50 | AβC5-411 (TTQRR; cyclic pentapeptide) | – | – | – | – | Reads/Total TXXXR reads (%) [1]: 0.004%; Reads/Total pentapeptide reads (%) [1]: 0.002%; Reads/Total peptide reads (%) [2]: 0.002%; Number of reads [3]: 75
51 | AβC5-469 (TTIGR; cyclic pentapeptide) | – | – | – | – | Reads/Total TXXXR reads (%) [1]: 0.003%; Reads/Total pentapeptide reads (%) [1]: 0.001%; Reads/Total peptide reads (%) [2]: 0.001%; Number of reads [3]: 53
